Data from paper PMC5714209 (Nucleic Acids Research, 2017).

Molecular target: the molecule itself
Assay: SEC

B1: full-length APOBEC3B (enzyme)
chain: not shown
B1 was tested, and the “stoichiometry N” value was 4.
